Reference: US20240124565A1 (DIADEM S R L, published 2024)
Where no end group is shown, it is not given here.

Molecular target: T1, peptide CRTEEENLRKKGEPHH (SEQ ID NO: 2) conjugated with BSA (human, also: conjugated with BSA by the glutaraldehyde method)
T1 construct: 16-residue immunogen derived from human p53 282-297, with Cys in place of the first Arg; ELISA plates were coated with 'the antigen'; also called the antigen; peptide used as antigen
T1 peptide: CRTEEENLRKKGEPHH
Assay: ELISA, plate coated with the antigen, hybridoma supernatant dilutions
Procedure: The animals' splenocytes were fused with mouse myeloma cells (SP2/O cell line). The fusion products were subjected to screening against the antigen to select the antibody-producing clones. The growth of these clones was continued. This first screening was performed by ELISA methodology. The positive clones were labeled as “parental clones” and frozen after 3 passages. An antigen coating was created onto ELISA plates, and successively the fusion product supernatant was added. The serum of the immunized animals was used as a positive control in ELISA (Example 2).
After the fusion between the splenocytes of the mouse with the best antibody titer and mouse myeloma cells, an ELISA assay was performed to evaluate the fusion products. A coating with the antigen was created in a 96-well ELISA plate and serial dilutions of the supernatant from various clones were added to each well to evaluate their antibody production by spectrophotometric reading. The clones with the highest optical density at 450 nm (OD₄₅₀ₙₘ) were transferred to 24-well plates and after their growth the ELISA assay was repeated, the clones with the highest antibody production were transferred to 6-well plates, grown and tested again by ELISA. The procedure was repeated also for the clones transferred to culture flasks.

B1: 2D3A8 antibody (antibody)
heavy: EVQLQQSGPELVKPGASVKMSCKASGYTFTSYVMHWVKQKPGQGLEWIGYINPYNDGTKYNEKFKGKATLTSDKSSSTAYMELSSLTSEDSAVYYCARGGYYAMDYWGQGTSVTVSSESQSFPNVFPLVSCESPLSDKNLVAMGCLARDFLPSTISFTWNYQNNTEVIQGIRTFPTLRTGGKYLATSQVLLSPKSILEGSDEYLVCKIHYGGKNRDLHVPIPAVAEMNPNVNVFVPPRDGFSGPAPRKSKLICEATNFTPKPITVSWLKDGKLVESGFTTDPVTIENKGSTPQTYKVISTLTISEIDWLNLNVYTCRVDHRGLTFLKNVSSTCAASPSTDILTFTIPPSFADIFLSKSANLTCLVSNLATYETLNISWASQSGEPLETKIKIMESHPNGTFSAKGVASVCVEDWNNRKEFVCTVTHRDLPSPQKKFISKPNEVHKHPPAVYLLPPAREQLNLRESATVTCLVKGFSPADISVQWLQRGQLLPQEKYVTSAPMPEPGAPGFYFTHSILTVTEEEWNSGETYTCVVGHEALPHLVTERTVDKSTGKPTLYNVSLIMSDTGGTCY
light: DIQMTQTTSSLSASLGDRVTISCRASQDISNYLNWYQQKPDGTVKLLIYYTSRLHSGVPSRFSGSGSGTDYSLTISNLEQEDIATYFCQQGNTLPYTFGGGTKLEIKRADAAPTVSIFPPSSEQLTSGGASVVCFLNNFYPKDINVKWKIDGSERQNGVLNSWTDQDSKDSTYSMSSTLTLTKDEYERHNSYTCEATHKTSTSPIVKSFNRNEC
notes: Mouse monoclonal from a hybridoma, purified from the clone's supernatant; also called clone 2D3A8
Question: Does B1 bind?
Answer: binds
